The values below come from PMC8447599.

Assay [1] concerns the target HoxA without the hydrophobic C-terminal membrane anchor (HoxA∆CTA), Strep-tagged (Alternaria alternata). The assay is described as follows: SEC.
For assay [2], the target named is Holo-PGP (chromophore-loaded photosensory domain of FphA) (A. nidulans). As to the kind of experiment: BLI.
The target of assay [3] is Apo-PGP (photosensory domain of FphA without chromophore) (A. nidulans). As to the kind of experiment: BLI.

Broadly, the stoichiometry N is a count of units in the complex or per binding partner. As usually defined, the Kd is the free concentration of one partner at which half of the binding sites on the other are occupied at equilibrium, for simple one-to-one binding. Read a low Kd as tighter binding.

As to “HoxA without the hydrophobic C-terminal membrane anchor (HoxA∆CTA), Strep-tagged (domain or fragment)”, the stoichiometry N in assay [1] was 2. In addition, the Kd in assay [2] turned out to be 64.6 mM; in assay [3] it was 0.00113 mM.
